130 substances from the supplement of paper PMC12042874 can be followed below.

± gives the uncertainty stated by the source.

This data set is described as follows: amyloid nucleation score (Sup35N fusion, yeast selection) (log enrichment); library NNK3; higher = more nucleation; inactive = no reads after selection. Summed up:
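Output and input plasmid inserts were sequenced by Illumina after psi-negative yeast carrying Sup35N fused to peptides of 20 random codons had been induced 24 hours with 100 μM copper sulfate and grown 7 days at 30°C on medium lacking adenine and uracil. The nucleation score is the DiMSum log enrichment of output over input reads, centred on the mode score of non-aggregating sequences. Sequences with under 100 input reads were excluded.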
For the substance AAGRGWTGEALMHRNAQCDS, the amyloid nucleation score was found to be 0.244 ± 0.87.

Regarding ACDTVEDGTSGGHCWVCGDG, the amyloid nucleation score result is “inactive”.

ACLLLSDLNY: the amyloid nucleation score result is “inactive”.

For the substance ACMLNEWRNVVRPYLCLSKN, the amyloid nucleation score result was “inactive”.

On to ACNDVIHVASSRDLMGAHPR, for which the amyloid nucleation score was -0.396 ± 0.87.

ACTCDRAGDRLVVWLLDGYL: the amyloid nucleation score result was “inactive”.

In the case of ACTLDTLFSFVPSHNWSGQK, the amyloid nucleation score entry was “inactive”.

As to ACTRWS, the amyloid nucleation score result was “inactive”.

For ADKWSHGAHDRVVLVLRVCR, the amyloid nucleation score entry was “inactive”.

Consider ADLGATAAINQKAWVGDQ, for which the amyloid nucleation score entry is “inactive”.

For ADNKLANWSGAVREWEVRRV, the amyloid nucleation score is -0.523 ± 0.95.

In turn, ADNRHIFFIGFQRVLSFSWA showed an amyloid nucleation score of 1.25 ± 0.1.

Substance ADSMTTGLVHGWCYFCMWFN displayed an amyloid nucleation score of 2.16 ± 0.065.

For AERAWYGGCLNRILLSVCCH, the amyloid nucleation score result is “inactive”.

On to AFAMRMTCSGLVNICHFAWL, for which the amyloid nucleation score was 0.287 ± 0.38.

Substance AFDTILAEYLCYFLL returned an amyloid nucleation score of 1.7 ± 0.1.

Turning to AFFPHELRDMFRSNLYCCYA, the amyloid nucleation score result was “inactive”.

AFSFMLACWQRRIAQALAYL: the amyloid nucleation score entry is “inactive”.

For AFSFPSERVWVWNFHMRDKE, the amyloid nucleation score turned out to be 3.11 ± 0.058.

For the substance AFTGTDSKF, the amyloid nucleation score entry is “inactive”.

As to AFYFRT, the amyloid nucleation score entry was “inactive”.

As for AGGCDRYVHPRFLDKRSSWS, the amyloid nucleation score result was “inactive”.

Regarding AGHSEA, the amyloid nucleation score entry was “inactive”.

In the case of AGKSLLRVQYP, the amyloid nucleation score entry was “inactive”.

AGNLLARPSLQKGCLLDELP had an amyloid nucleation score of -0.73 ± 1.7.

As to AGQNQVRDGKVIVKACSCMS, the amyloid nucleation score entry was “inactive”.

On to AGTSKMNIYSMHAV, for which the amyloid nucleation score entry was “inactive”.

In the case of AGWCYFASSVLVRTSWSQCA, the amyloid nucleation score entry is “inactive”.

For AGYGSVSRLSMEKMEFNQ, the amyloid nucleation score result was “inactive”.

As to AHCLTRGSVTPCPLGSRAVR, the amyloid nucleation score entry was “inactive”.

Regarding AHGHISCLLTYTAYWYCCV, the amyloid nucleation score was determined as 0.502 ± 0.19.

As to AHRFITMSLERVSTYRGLYV, the amyloid nucleation score result is “inactive”.

On to AICSPTLLDYYFLFKVLPGS, for which the amyloid nucleation score entry was “inactive”.

In turn, AILEVLT yielded an amyloid nucleation score of 0.671 ± 0.17.

Consider AIRFVNPMFSFWVSNWNYAG, for which the amyloid nucleation score entry was “inactive”.

In the case of AISPNASTWTACTFYCMDSG, the amyloid nucleation score is -0.027 ± 0.26.

Turning to AIVESKPYLRSVL, the amyloid nucleation score entry was “inactive”.

Take AIVFGGNAQKSHTHDTGAMG: the amyloid nucleation score entry is “inactive”.

Turning to AIVFNFDYLLYLQNRSNLMH, the amyloid nucleation score result is “inactive”.

In the case of AIYAHYYRTWVFWYYMVPGC, the amyloid nucleation score result is “inactive”.

As for AKGAMLCTMT, the amyloid nucleation score result is “inactive”.

In the case of AKIVECM, the amyloid nucleation score entry is “inactive”.

As to AKSMVWNGGVWYLFQEYARG, the amyloid nucleation score result is “inactive”.

For AKTSADYTYVASRTDFGCVN, the amyloid nucleation score result is “inactive”.

In turn, ALALMFVEGCVIYMGIGC returned an amyloid nucleation score of 1.93 ± 0.076.

ALESTMVWLSQRQGRFVHSL gave an amyloid nucleation score of -0.284 ± 0.7.

For the substance ALGIYRTIYCVIVFG, the amyloid nucleation score entry was “inactive”.

For the substance ALIHFGIEVKRYICWMQNLV, the amyloid nucleation score entry is “inactive”.

Take ALKDGIFFFHA: the amyloid nucleation score result is “inactive”.

Turning to ALKVYADMIDYLWLRTFMSW, the amyloid nucleation score result is “inactive”.

Regarding ALLYRERKYSMLVKFVVYRS, the amyloid nucleation score result is “inactive”.

Regarding ALRARERWLRLPALAWKVMY, the amyloid nucleation score entry was “inactive”.

For the substance ALSNN, the amyloid nucleation score result is “inactive”.

In the case of ALSVFRGLCVLENFSKISGC, the amyloid nucleation score entry was “inactive”.

Turning to ALTHHVVYLMAGKNVTTS, the amyloid nucleation score result is “inactive”.

As for ALTLMCFSVLGFYYVVMYCF, the amyloid nucleation score result is “inactive”.

Turning to ALVRGIVSTPDSRM, the amyloid nucleation score entry was “inactive”.

As to ALVWFENVSVQELQWIKLTS, the amyloid nucleation score result was “inactive”.

In turn, ALWFIHYGAG registered an amyloid nucleation score of 0.98 ± 0.24.

Regarding AMEIRNVQELSIGPGNWMET, the amyloid nucleation score result was “inactive”.

AMLLCTYFRKAVYLNAK: the amyloid nucleation score result is “inactive”.

Take ANDVISYTFFLSEERG: the amyloid nucleation score result was “inactive”.

For the substance ANNLAFSRGG, the amyloid nucleation score was -0.977 ± 1.5.

On to ANNPLLG, for which the amyloid nucleation score entry is “inactive”.

For ANTFKVWPKDICAGTVYM, the amyloid nucleation score result is “inactive”.

Take ANVWPISPLSGGVRLWMFGR: the amyloid nucleation score entry is “inactive”.

As for ANWIVGC, the amyloid nucleation score entry is “inactive”.

Regarding ANWVVVLLNRQASLGRFAYV, the amyloid nucleation score result was “inactive”.

For APGCGTNLGMIFALGWALWR, the amyloid nucleation score result is “inactive”.

Turning to APIVKL, the amyloid nucleation score result was “inactive”.

On to APLMTYMVMTFMWDSKELPD, for which the amyloid nucleation score entry is “inactive”.

As for APVKLAGLHTSVRARGIGYW, the amyloid nucleation score was -0.192 ± 1.3.

Turning to ARHVENSAKGFVGYLRRMHV, the amyloid nucleation score result was “inactive”.

Regarding ARLETHCFMRRRGQF, the amyloid nucleation score entry was “inactive”.

Consider ARLVYFFLYGLSCRMHCLCW, for which the amyloid nucleation score result is “inactive”.

On to ARMLSVYSSESQCVTPGWCC, for which the amyloid nucleation score entry was “inactive”.

For the substance ARSARGLGQRYLLYMYCLWL, the amyloid nucleation score result is “inactive”.

ARSDGA: the amyloid nucleation score entry was “inactive”.

In the case of ARVLDAWSYRVARKNLWESL, the amyloid nucleation score entry was “inactive”.

ASATAYSVNLRLKVTVNM gave an amyloid nucleation score of 1.71 ± 0.12.

As for ASFKFGG, the amyloid nucleation score entry was “inactive”.

For the substance ASGDLAGSKLVSYRVATLIN, the amyloid nucleation score result was “inactive”.

For ASLISILLALDMSMGLSLEP, the amyloid nucleation score result was “inactive”.

As to ASLVKSHDHMRASHLGGLHK, the amyloid nucleation score entry was “inactive”.

Consider ASVACLAFP, for which the amyloid nucleation score entry is “inactive”.

Regarding ASWKLITCQNSAFR, the amyloid nucleation score entry was “inactive”.

As to ATAPYDTVCRLYCLSWPPRS, the amyloid nucleation score result is “inactive”.

As for ATNLWR, the amyloid nucleation score result was “inactive”.

ATRASPMSGTYSCTFKIIFL: the amyloid nucleation score was determined as 2.94 ± 0.082.

Consider ATRTNYCACPLLMARWMSVL, for which the amyloid nucleation score result was “inactive”.

With ATSEYWILLVFYLCDIAQVS, the amyloid nucleation score entry was “inactive”.

In the case of ATTNKLIYSHMVGKMLTSSF, the amyloid nucleation score result is “inactive”.

With AVGNCSSWGYGSSTLP, the amyloid nucleation score entry was “inactive”.

As for AVIRFCPGRNSESDSRAHRP, the amyloid nucleation score result is “inactive”.

In the case of AVLVDSWRWERFYFMTTIKT, the amyloid nucleation score entry was “inactive”.

AVMVRRYFVDWCRQEVTFHV returned an amyloid nucleation score of 0.088 ± 0.62.

In the case of AVNYMYSQSMKIVRDCFVIV, the amyloid nucleation score result was “inactive”.

With AVRSFLTWISMN, the amyloid nucleation score result is “inactive”.

As to AVSAVCSAVCGLMSSSTDMD, the amyloid nucleation score is 0.527 ± 0.26.

Turning to AVTCVDSWMRDTG, the amyloid nucleation score entry was “inactive”.

As for AVVFCVSEYYQQKRYLNSSQ, the amyloid nucleation score result is “inactive”.

On to AVVVIQRYLAVHCWVFGERI, for which the amyloid nucleation score is -0.57 ± 0.93.

Regarding AVYSWCARTYSILSTLRGEF, the amyloid nucleation score entry is “inactive”.

As to AWPIIRFYIQRYLWIVRGRG, the amyloid nucleation score result is “inactive”.

In the case of AWQYVGMISFM, the amyloid nucleation score result was “inactive”.

For AYAIGHEDCEVYQLLVKLLG, the amyloid nucleation score result is “inactive”.

Consider AYKAAYAVWCVIINGGLF, for which the amyloid nucleation score entry is “inactive”.

In the case of AYKYVTVCLVDSSVLTSNRG, the amyloid nucleation score entry is “inactive”.

For the substance AYRLTLCLPSWVWL, the amyloid nucleation score result was “inactive”.

With CAHVSFKLVFSINWWSNLLN, the amyloid nucleation score entry was “inactive”.

As for CAISLVRLTVQSEEIRVDRN, the amyloid nucleation score result is “inactive”.

Consider CALSHYGKFDYYPSFVSFKQ, for which the amyloid nucleation score result was “inactive”.

On to CANAYWDVCCCYVFLMGLGG, for which the amyloid nucleation score is -0.268 ± 1.1.

For CANFRV, the amyloid nucleation score result is “inactive”.

On to CAQMPCMLENGP, for which the amyloid nucleation score result was “inactive”.

As for CASPSGFSSQGVTWFVEV, the amyloid nucleation score result was “inactive”.

CATFFAKLQYNYH registered an amyloid nucleation score of 1.28 ± 0.12.

As to CAWVHIS, the amyloid nucleation score result is “inactive”.

On to CAYPVKKCMPYQYMKKFVLV, for which the amyloid nucleation score entry was “inactive”.

Turning to CCAVLFRGVRGMVRCNWNFD, the amyloid nucleation score entry is “inactive”.

On to CCCRIEYHGVHGATSHSQTV, for which the amyloid nucleation score entry was “inactive”.

Substance CCFIYECSLRNLSALVDDQR yielded an amyloid nucleation score of 1.18 ± 0.091.

Take CCFSTGCHEKCSSLDDMCVF: the amyloid nucleation score result was “inactive”.

In turn, CCFYRSSWVFKLGEGRVIIP came in with an amyloid nucleation score of 0.319 ± 0.43.

CCGGFIVMQQAGGSPIDGQG: the amyloid nucleation score is 0.29 ± 0.2.

Take CCGINGIKLAAANRWSPVEH: the amyloid nucleation score result is “inactive”.

As for CCLFADCDLRYFSNRTFFNC, the amyloid nucleation score entry was “inactive”.

Regarding CCLTIGSKPIYHCWQLGIMA, the amyloid nucleation score result was “inactive”.

With CCMSSIIVCYCWMYGTTKLM, the amyloid nucleation score stood at 0.927 ± 0.1.

Consider CCMVNRGTRQVSRWIVPNWR, for which the amyloid nucleation score entry is “inactive”.
